# Assay results: the DeepSol protein solubility set
# Test: soluble on expression in E. coli; label from the status in PepcDB or PDB records
row,Sequence,soluble on expression in E. coli
1,MSQSNHPGGKDAGSIPRVLISADRSSSGKTTISMGLMAALVSRGYKVQPFKVALDYIDPSYHTEITGRFCRNLDGYLMDEHGILDVYTHACETGGGADIAIIEGVRGLFEGFESLSDVGSTAQIAKILKCPVVFVINARSITRSAAALIGGYKNFDPDVEIAGVILNNIGGRRHAQKAKEAIEHYTGVPVLGIIPRDPSMQISMRHLGLMPALEGRRRFGDGGFENRLHGIEEIINKGIDVDRFLGIAESAKPLTALENSIFSPAVNENSQKPKIGVALDEAFNFYYRDNIDLLEIAGAEIVYFSPVNDPGLPEVDGLYIGGGYPELFAAELEANETMRKSIKEASAAGMPIYAECGGLMYLTEKISTGVPGKGTYHDASMPESTYSMVGALPGHTIMGQTRVVSYNIGTLARDCPIGKKGNSFKGHEFHHSEILEIPDDAEFAIALTRGTGIRGDRDGLIVNNTIGSYAHLHGVAYRELAGSLVEAARKFRDSRVSSLEHHHHHH,soluble
2,MSGLVLGQRDEPAGHRLSQEEILGSTKVVSQGLEALHSEHQAVLQSLSHTIECLQQGGHEEGLVHEKARQLRRSMENIELGLSEAQVMLALASHLSTVESEKQKLRAQVRRLCQENQWLRDELAGTQQRLQRSEQAVAQLEEEKKHLEFLRQLRQYDEDGHGMEEKEGEATKDSLDDLFPNEEEEDSGNDLSRGQGAAAAQQGGYEIPARLRTLHNLVIQYAAQGRYEVAVPLCKQALEDLERTSGRGHPDVATMLNILALVYRDQNKYKEAAHLLNDALSIRESTLGRDHPAVAATLNNLALLSVWGWPTGLPCPGLFYPLLPHYRSTYFTVSLINEPGNI,soluble
3,MSLTEPRQAHRLHILKVALDVPLDGVFDYLSEAPVQIGQRVVVPFGPRRQVGIVVDLADASDVAPAKLKSIIQYFDQEPVLDGEFFSLLKFCADYYQYPYGQALLSALPARLRQTEPARARQQFCYWLNSAGQAADISAIPVRQAVQRRIFAALRAHGRLNEAELAELSPGWRKGLAALRERGWIEEEQVYAGLGSTLHASSVQPELNEEQVLAVQSILQYRDTFRPWLLHGITGSGKTEVYIRLLQAVLEGNQDQALVLVPEINLTPQLEARFRTRLPQFPLVTLHSNLSESERLQNWRLAQTGAARIVIGTRLSVFTPLPGLKFMIVDEEHDTSYKQQDGMRYHARDVALVRAQRRNIPIVLGSATPALETWHNARNGRYGLLTLQQRAVSQSQLPQVNCVDVSRVQMQEGLSPQLLKALKVRLERGEQSLLFINRRGYAPVLLCNACHWIAPCMRCSSRLVVHLRQGFLRCHHCGHEQNIVRQCPSCGNADLHPTGNGTQRLEETLTRLLPEARVLRVDRDSTRRKHALSEMLSAVHVGEVDILVGTQMLAKGHDFPNLTLVGVLDTDSALFSPDFRAAERLFAQLMQVAGRAGRADKPGEVLIQTSFPEHQLFNALRVQDFAAYAASLLQEREVAQFPPCEFLALIKAEANEYGPVQRFLQFAADSARALGTDALVYDPVRPQMERLKGMERGQLLFQAATRQTLQIVLRQLTPQLRAHPLSNKIRWAVDVDPQEEGHHHHHH,not soluble
4,MSLKEAEVLKYEAFTSSPGKGNPAGVVLQGDDYTEDEMQIIAERAGYSETSFIRKSESADLELRYFTPGHEMNLCGHATVASLYALCEKGMLESGKTYSIQTKAGILPVKISEKDGRIHITLEQASPQFKPFTGDRKKLADALGITDEDFHEDLPIVFGSTGIWTAIVPLKSLEASKKMVPDNKQFPEVLVDLPKASVHPFTFETVHPDSDLHGRHFSSPYSGTIEDPVTGTASGVMGAYMKHYGNAEQHKFIIEQGQEIGKDGKVEIEMNEAGGHVKVNMTGTAVYSETRILKIEGGSHHHHHH,soluble
5,MGSDKIHHHHHHMQKSLEKCSAIDYLIVLGGRHVNETIYLADERKRLPSLVKHHRASPGRLIRECEIPPLFDVIISGEAEKLIAEIGELFSRCNQSPATFIAENLDMKTEGRWIADFPRIDNTLVSDGVPLKRDELPSVVGTFGVTASFDVFEGRMTSHIFSDTGPGCIYDCNFCSERRSIAGNIQDIQGAPRRLYNQLNETVSAVMQDHPSKGASAFVEDSIFLSGSPVAITQLCQLLEKAPLEVIFGGQFTIDQILRKKDLIQRLAKCGLRYIFIGLETLEPQEIGGMSKDVDGNKQTWKDRFLQALDFMAANHIDCGCALLFGLGEAHISRRNLLNGLIKLKQETGQPITLSANWAVRHPLRSSRESENENYLRRGTPEGELLEYFHRFGEASLEYPLPNVCAPQVGEVKEIILLLNEFEASDA,not soluble
6,MSLNLVSEQLLAANGLKHQDLFAILGQLAERRLDYGDLYFQSSYHESWVLEDRIIKDGSYNIDQGVGVRAISGEKTGFAYADQISLLALEQSAQAARTIVRDSGDGKVQTLGAVEHSPLYTSVDPLQSMSREEKLDILRRVDKVAREADKRVQEVTASLSGVYELILVAATDGTLAADVRPLVRLSVSVLVEEDGKRERGASGGGGRFGYEFFLADLDGEVRADAWAKEAVRMALVNLSAVAAPAGTMPVVLGAGWPGVLLHEAVGHGLEGDFNRRGTSVFSGQVGELVASELCTVVDDGTMVDRRGSVAIDDEGTPGQYNVLIENGILKGYMQDKLNARLMGMTPTGNGRRESYAHLPMPRMTNTYMLPGKSTPQEIIESVEYGIYAPNFGGGQVDITSGKFVFSTSEAYLIENGKVTKPVKGATLIGSGIETMQQISMVGNDLKLDNGVGVCGKEGQSLPVGVGQPTLKVDNLTVGGTA,soluble
7,MDRPVRVLFVCLGNICRSPMAEGIFRKLLKERGLEDRFEVDSAGTGAWHVGEPMDPRARRVLEEEGAYFPHVARRLTREDVLAYDHILVMDRENLEEVLRRFPEARGKVRLVLEELGGGEVQDPYYGDLEDFRKVYWTLEAALQAFLDRHGSPSPAAEGRA,soluble
8,MGSDKIHHHHHHMTTDGQLAYQQTCDYPIEERQSEQQVIRQYLPLIKRIVSQMRSHCGVMLSLEDMEQIGMMALLESSRRYPGELDNGFISFAGQRIRGAILDELRRQDWRPRPVRQQAHELNDVVRRLSREMGREPSDLEVASALGLSAEDYRERLYSTQAESMKSLDELLLVGEHPVDRGNDVEQLMLKQTLIKVISKLNEREQLILSLYYHHELNLKEIAMALGLTETRICQLHKSAISQLKTILQR,not soluble
9,QLLGATVVEHNPLYTAHELEGLFQDHGARVAIAWDKAASTLEKLRDTTSLETIISVNMTEAMPRIQQLALRIPIPPIAAKREQLTAFADNTVPWSTLIGNAIGGNGKRTEFPKVTKDDIALILYTSGTTGTPKGALLSHGNLVSNCFMGKAWVPGLGDQPER,not soluble
10,MARPIGIYEKATPKHFTWLERLNFAKELGFDFVELSIDESDERLARLDWSKKERLELVNAIFETGVRIPTITFSGHRRYPLGSNDSEKEARALEMMEKCIEFAQDIGIRNIQLAGYDVYYEEKSPKTRARFLKNLRQACTWAEEAQVILSIEIMDDPFINSIEKYLAVEKEIDSPYLFVYPDAGNVSAWGNDLWSEFYIGHKSIAALHLKDTYAVTESSKGQFRDVPFGQGCVDWEAMFDVLKKTNYNGPFLIEMWSENCETVEETRAAIKEAQDFLYPLIEKAGLR,not soluble
11,MKRGKGEKKATKSRDGSGQVVPLTEPVVTATGMVGTRSWIGGLFTRSNRRQDKAVDYTLSPLQEERLQRLQDRMVVPFDETRPDHQESLKALWNVAFPNVHLTGLVTEQWKEMGWQGPNPSTDFRGCGFIALENLLFSARTYPVNYSLLLKQRGDRAKWEYPFAVAGINISFMLIQMLDLQNNQDERAFDVLYCIAFAMMDAQWLAMHASYMEFNEVLQATRNQLERELSLDDIHRIQDLPAYNLLFQ,soluble
12,MPQGSALSDTERAQLDVMKLLNVSLHEMSRKISRSRHCIRVYLKDPVSYGTSKRAPRRKALSVRDERNVIRAASNSCKTARDIRNELQLSASKRTILNVIKRSGVIVRQKLRPAPLLSADHKLKRLEFAKNNMGTNWSKVVFSDEKKFNLDGPDGCRYYWRDLRKEPMVFSRRNFGGGTVMVWGAFTEKKKLEIQFVSSKMNSTDYQNVLELELSKYLRHYSGKDFRFQQDNATIHVSNSTRDYFKLKKINLLDWPARSPDLNPIENLWGILVRIVYAQNKTYPTVASLKQGILDAWKSIPDNQLKSLVRSMEDRLFEIIRTQGNPINY,not soluble
13,MPKKVLIFCDPGIDDTMALLLAFFIDEIEIVGIVADYGNVPKKMAVENAHFFNNETKNRNIKIFGGSERPLTGAPPAFFTDVHGKQGLGPIIPKVNVTNGEMENFFEVIPLIEQYKDELIIVSLGRLTSLAILFIMCKQLMKQIKSYYVMGGAFLHPGNVTPISEANFYGDPTAANIVLQSTANMYIYPLNVTQYSIITPEMAEYIEAKGKAPLVKTLFDHYYYGYYKDALPHLKGSPFHDTIPILALLDNSMFTYHKSPIVVMTESYAQGASIGEFRSLGESKPFIDWPSHQIAIDFDYNRFFKHFMSLMTGEQF,not soluble
14,LSSVSSIPDYAEQLRTADLRVTRPRVAVLEAVNAHPHADTETIFGAVRFALPDVSRQAVYDVLHALTAAGLVRKIQPSGSVARYESRVGDNHHHIVCRSCGVIADVDCAVGEAPCLTASDHNGFLLDEAEVIYWGLCPDCSISDTSRSHP,soluble
15,RPDPFPQNGLPAARLAMVAREMGHIAPFVRAVYAAQFGRGLVISDPQVLAECWAEAGLPPEAMEQAKSPEIKAALFAQGERAAALDLFGAPSFVVGEEVFWGDDRLDQALALAAQS,not soluble
16,MKKYVCTVCGYEYDPAEGDPDNGVKPGTSFDDLPADWVCPVCGAPKSEFEAA,soluble
17,MINSKKELRKNMVLKRDSLEPDLKSIKDNMIYNKVINSIQYKSANNIFVFVSYKSEVDTHNIIRTAIADGKKVFVPKVISKEKGMEAAEIRGFFDLEKSAYGILEPKSSNYIEPESIELLLVPGLAFDESGGRIGYGGGFYDRYMSLLDKSAVKVGICYDFQVIDKVIMNINDVPVDKIIVGLEHHHHHH,not soluble
18,MGSDKIHHHHHHMNAIASRQRPLLPVREAVVTRVRGSAPTAVGASMCLLEDGSLLGTVGGGRMEYQVCQVLCSPRSEAPPALLSFTLGTADDQCCGGQVEICVLDVPLFFSELYQPGASRLYQRDSAGRLRLVAGMTRLGREIGSFDALTVLLRANAPGMDVEERHFALPAPHHQPLWIFGAGHVGRAIASMAHKLDFASSVFDQRPEWADPAAFPPEVTLVDTWTWADLQAPATDAMVLIMTYSHAMDYALLEHFIGEPLAYLGVIASRSKAARFSHALSRAGHDIPDYLHMPMGLPGMGKKPPEIAISVLAELLQLRHKKTDF,not soluble
19,MAKATYACVECGYRTPKPLGRCPSCGSWESFQEVAPAPASRRAKPSPLPLLALSQVDEAEERRFSSGLSEVDRVLGGGFVTGEVVLLGGEPGVGKSTLLLEMAKRMPQRVYYVAGEESPAQIKLRAQRLGVKDLLLVRETRLEPLLALLEEDPPEVLFVDSVQTLEAGGSPGSLVAVREATSALVRFAKERGVAVVLVGHVTKEGVVAGPKSVEHAVDATLYLETAGPYRVLRSAKNRFGPVGEIGVFRMEEAGLLEVENPSEAFLKERPLGVPGSAVALALAGERALALEVQALAAKTPFPAPRRVVQGLDGRRVDVVLAVLERRLGLPLANLDVYVNLAGGLKVQDPGLDLAVALAVYSAVVGRPLPVDLALVGEVGLAGEVRRVAVLERRLREGERAGFGRFLHPGNLKRLQEAVEAYLA,soluble
20,MMHGGFAMIIDQYWGKYFGDSADSQRLAQYLAGKNREVLTTSEIFQDFQLAQLSGNYTQASLDGAGWHFDSAFQFVIDLAVLVLESKKVGRFSIARIGGPEDRFMRIDAATDELLPITMALKHYALAPEDYLFSHGIDVDDWYELGNLCEEIRAQLEA,not soluble
21,MGSDKIHHHHHHMDKLMKICPTREIELQQKAKQLYEEEENRKIAYNAGLVEAEGYCQYTRLKEIIEFAKKCGYKKIGIAFCIGLKREMQTVQKIFEHHGFEVFSVICKNGAMPKSTIGLEASQTISKCSDEVMCNPIGQALFLNEAKVDLNVILGLCVGHDTLAMKYMEAPITTLVVKDRVTGHNPVAAIYNAESYFEKKLFDKDEE,not soluble
